Substitutions are numbered along the chain they refer to.
B1: 442S1: modified anti-ErbB3 antibody from lead antibody 442P (CDR mutagenesis) (antibody, V domains shown)
VH: EVQLLESGGGLVQPGGSLRLSCAASGFTFSDYDMSWVRQAPGKGLEWVSTIDLDSGSIYYADSVQGRFTISRDNSKNTLYLQMNSLRAEDTAVYYCAKDLHMGPEGPFDYWGQGTLVTVSS
VL: QSVLTQPPSASGTPGQRVTISCSGSSSNIGSNSVSWYQQLPGTAPKLLIYSDNHRPSGVPDRFSGSKSGTSASLAISGLRSEDEADYYCQGWDTSLSGHVFGGGTKLTVLG
modifications: Heavy chain variable region of antibody 442S1; Light chain variable region of antibody 442S1
B2: 442S6: modified anti-ErbB3 antibody from lead antibody 442P (CDR mutagenesis) (antibody, V domains shown)
VH: B1 VH with T50S, D52Y, L53P, I58T, Y59D, L100R, G103W
VL: B1 VL with V34G, S51A, H54W, Q90A, G91A, T94S, H99Y
modifications: Heavy chain variable region of antibody 442S6; Light chain variable region of antibody 442S6
B3: 451M5: modified anti-ErbB3 antibody from lead antibody 451P (CDR mutagenesis) (antibody, V domains shown)
VH: EVQLLESGGGLVQPGGSLRLSCAASGFTFSDYDMSWVRQAPGKGLEWVSAIYYDSGSIYYADSAKGRFTISRDNSKNTLYLQMNSLRAEDTAVYYCAKDRLFESDSTFDYWGQGTLVTVSS
VL: B1 VL with S26P, S31N, S35T, S51Y, N53S, Q90G, G91S, T94A, S97N, H99Y
modifications: Heavy chain variable region of antibody 451M5; Light chain variable region of antibody 451M5
B4: 451M7: modified anti-ErbB3 antibody from lead antibody 451P (CDR mutagenesis) (antibody, V domains shown)
VH: B3 VH with D31Y
VL: B1 VL with S26P, S31N, S35T, S51Y, N53S, Q90G, G91S, T94A, S97N, H99Y
modifications: Heavy chain variable region of antibody 451M7; Light chain variable region of antibody 451M7
B5: 451M6: modified anti-ErbB3 antibody from lead antibody 451P (CDR mutagenesis) (antibody, V domains shown)
VH: B3 VH with D31H
VL: B1 VL with S26P, S31N, S35T, S51Y, N53S, Q90G, G91S, T94A, S97N, H99Y
modifications: Heavy chain variable region of antibody 451M6; Light chain variable region of antibody 451M6
B6: 451M4: modified anti-ErbB3 antibody from lead antibody 451P (CDR mutagenesis) (antibody, V domains shown)
VH: B3 VH with D31Y, E103A
VL: B1 VL with S26P, S31N, S35T, S51Y, N53S, Q90G, G91S, T94A, S97N, H99Y
modifications: Heavy chain variable region of antibody 451M4; Light chain variable region of antibody 451M4

target: T1, recombinant human ErbB3 protein (Homo sapiens, UniProt P21860); assay: Binding affinity of anti-ErbB3 antibody to human ErbB3 protein (Octet QK384); conditions: immobilized human ErbB3; binding phase about 900 seconds
T1 construct: purchased R&D systems
Method: In particular, the binding affinities of the anti-ErbB3 antibodies to the recombinant human ErbB3 protein (R&D systems) and the antigen-antibody interactive dynamics were measured using an Octet® QK384 system (Pall Life Sciences). After activation of carboxyl groups in 20 mM of 1-ethyl-3-(3-dimethylaminopropyl)carbodiimide hydrochloride (EDC) and 40 mM of N-hydroxysulfosuccinimide (sulfo-NHS) solution on an AR2G sensor (ForteBio), 10 μg/mL of human ErbB3 protein solution diluted with 10 mM of sodium acetate (pH 4.0) (ForteBio) was added to immobilize human ErbB3 protein onto the AR2G sensor. The AR2G sensor to which the human ErbB3 protein was immobilized was treated with 1 M of ethanolamine (ForteBio) to inactivate the remaining unreacted carboxyl groups.

Molecule | ka (association constant) [M⁻¹ s⁻¹]
B1 | 522000
B2 | 872000
B3 | 1.52e+06
B4 | 1.35e+06
B5 | 1.2e+06
B6 | 2.01e+06

same assay, conditions: immobilized human ErbB3; dissociation phase about 1200 seconds

Molecule | kd (dissociation constant) [s⁻¹]
B1 | 3.94e-07
B2 | <1e-07
B3 | 3.29e-05
B4 | 6.63e-06
B5 | 4.17e-06
B6 | 1.23e-05

tested on: FaDu head and neck cancer, pancreatic cancer, or lung cancer; assay: Tumor growth inhibition, FaDu head and neck, pancreatic or lung cancer animal model; type: in vivo; conditions: not given
Method: The antibody 442S1 was administered into FaDu head and neck cancer, pancreatic cancer, or lung cancer animal model, and the antibodies 442P or 472P antibodies were administered into gastric cancer animal model, in the same manner as described in Examples 3.1 to 3.3.

Molecule | tumor volume relative to negative control group
B1 | tumor volume was reduced

tested on: ZR-75-30 cells; assay: Paclitaxel resistance, caspase 3/7 activity in ZR-75-30 breast cancer cells with HRG; type: cell-based; conditions: 100 ng/mL HRG, 10 nM Paclitaxel, 25 μg/mL 442S1, about 72 hours; FIG. 10
Method: About 1×10^4 ZR-75-30 cells (American Type Culture Collection) were inoculated onto a plate and incubated in RPMI 1640 medium (Invitrogen) including 10% (v/v) FBS at 37° C. under 5% CO2 conditions for about 24 hours. The medium was then exchanged with fresh medium (100 ng/mL HRG added) including 0.1% (v/v) FBS, and further incubation was performed at 37° C. under 5% CO2 conditions for about 24 hours. 10 nM of Paclitaxel (Bristol-Myers Squibb) and 25 μg/mL of antibody 442S1 were added to the cultured cells and incubated at 37° C. under 5% CO2 conditions for about 72 hours. The cultured cells were collected, and the activity of caspase 3/7 as an apoptotic marker was measured using a Caspase 3/7 Substrate Assay (Promega).

Molecule | activity of caspase 3/7
CC(=O)O[C@H]1C(=O)[C@@]2(C)[C@H]([C@H](OC(=O)c3ccccc3)[C@]3(O)C[C@H](OC(=O)[C@H](O)[C@@H](NC(=O)c4ccccc4)c4ccccc4)C(C)=C1C3(C)C)[C@]1(OC(C)=O)CO[C@@H]1C[C@@H]2O [Paclitaxel] | reduced

tested on: FaDu human head and neck cancer cells; assay: Cetuximab resistant FaDu xenograft model; type: in vivo, NOD SCID mice; conditions: after Cetuximab failure; 10 mg/kg 442S1, 5 mg/kg Cetuximab, twice a week, 2 weeks; FIG. 12
Method: FaDu human head and neck cancer cells (Shanghai Institutes of Biological Sciences) were incubated in EMEM medium (Hyclone) including 10% FBS (Invitrogen), 0.01 mM NEAA (Non-Essential Amino Acid, Hyclone), and 2 mM L-glutamine (Invitrogen). About 5×10^6 FaDu cancer cells were suspended in 100 μl of PBS and then subcutaneously injected into the frank region of the female NOD SCID mice (HFK Bio-Technology Co., Ltd.). Weights of the mice were measured twice a week, and tumor volume was calculated using the equation of “0.5 a×b^2”, where a and b were the long and short diameters of the tumor, respectively. When the tumor volume reached about 165 mm^3 after 8 days from the inoculation of the cancer cells, the mice were randomly selected. […] Tumor volumes were measured twice a week.

Molecule | tumor suppression effect compared with Cetuximab alone
B1 | significant tumor suppression effect

Reference: patent US10413607B2, “Antibody specifically binding to ErbB3 and use thereof” (ISU ABXIS CO., LTD., priority 2015, dated 2019)
